Laboratory results taken from patent US20090297503A1 (Chugai, published 2009).

Columns and labels:
[1] = biological target: T1, recombinant human blood coagulation Factor VIII (Kogenate FS) (human, UniProt P00451 20-2351); test: SPR (BIAcore X), moAb216 coupled to CM5 chip, Factor VIII in flow, 37 C
T1 construct: The background describes the protein as a heavy chain/light chain heterodimer and numbers 2,332 residues; the entry may also carry the signal peptide; also called F.VIII
Method: (§1) The kinetics of moAb216 interaction with Factor VIII was determined by SPR-based assay using a BIAcore X instrument (Biacore AB, Uppsala, Sweden) as previously reported. moAb216 was covalently coupled to the surface of CM5 chip at a coupling density of up to 5 ng/mm². Binding (association) of the ligand was monitored in the running buffer (10 mM HEPES pH 7.4, 0.1 M NaCl, 1 mM CaCl₂, 0.005% polysorbate 20) for two minutes at a flow rate 20 μl/min. The dissociation of bound ligand was recorded over a two-minute period by replacing the ligand-containing buffer with buffer only. The level of nonspecific binding as a result of ligand binding to the uncoated chip was subtracted from the signal. Reactions were performed at 37° C. The rate constants for association (kₐₛₛₒ) and dissociation (kdiss) were determined by nonlinear regression analysis using the evaluation software provided by Biacore AB. The dissociation constant (Kd) was calculated as kdiss/kₐₛₛₒ.
(§2) Reactions were performed as described under “Materials and Methods”. Parameter values were calculated by nonlinear regression analysis using the evaluation software provided by Biacore AB. ^{#}Values were calculated as kdiss/kₐₛₛₒ. *not determined

Factor VIII light chain = biological target: T2, Factor VIII light chain (human, UniProt P00451 1668-2351); test: ELISA: Factor VIII light chain (50 nM) coated on microtiter wells, biotinylated moAb216 added, detected with peroxidase-conjugated streptavidin, absorbance at 492 nm
T2 construct: only the light chain part stood in the assay; also called LCh
T2 sequence: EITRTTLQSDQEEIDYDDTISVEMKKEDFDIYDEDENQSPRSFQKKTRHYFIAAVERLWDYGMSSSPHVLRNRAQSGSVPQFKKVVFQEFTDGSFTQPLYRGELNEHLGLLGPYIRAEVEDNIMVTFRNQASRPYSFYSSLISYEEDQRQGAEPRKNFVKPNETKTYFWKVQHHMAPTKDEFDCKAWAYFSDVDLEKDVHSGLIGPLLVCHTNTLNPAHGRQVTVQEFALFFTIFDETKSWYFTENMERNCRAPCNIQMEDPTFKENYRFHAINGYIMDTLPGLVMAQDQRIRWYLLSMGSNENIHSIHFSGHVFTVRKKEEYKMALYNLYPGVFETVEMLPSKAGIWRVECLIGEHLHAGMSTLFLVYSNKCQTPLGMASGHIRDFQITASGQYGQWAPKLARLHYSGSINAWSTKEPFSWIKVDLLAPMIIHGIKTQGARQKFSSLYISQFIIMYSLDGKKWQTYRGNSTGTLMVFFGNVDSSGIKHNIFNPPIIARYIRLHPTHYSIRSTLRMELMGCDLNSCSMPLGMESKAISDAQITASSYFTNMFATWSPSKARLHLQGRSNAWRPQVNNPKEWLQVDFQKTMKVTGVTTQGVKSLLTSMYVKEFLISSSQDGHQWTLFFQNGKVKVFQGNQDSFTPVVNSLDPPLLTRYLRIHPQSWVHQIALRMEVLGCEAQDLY
Method: (§3) Microtiter wells were coated with Factor VIII or its subunit (50 nM) in 20 mM Tris, and 0.15 M NaCl, pH 7.4, overnight at 4° C. The wells were washed with PBS containing 0.01% Tween 20 and were blocked with PBS containing 5% HSA for two hours at 37° C. The indicated concentrations of biotinylated-moAb216 were then added in 20 mM HEPES, 0.1 M NaCl, 5 mM CaCl₂, and 0.01% Tween 20, pH 7.2 (HBS-buffer) containing 1% HSA for two hours at 37° C. Bound IgG was quantified by the addition of peroxidase-conjugated streptavidin and O-phenylenediamine dihydrochloride substrate. Reactions were stopped by the addition of 2 M H₂SO₄, and absorbance was measured at 492 nm. The amount of nonspecific binding of anti-mouse peroxidase-conjugated IgG in the absence of moAb216 was <5% of the total signal. Specific binding was recorded after subtracting the nonspecific binding.

Factor VIII heavy chain [2] = biological target: T3, Factor VIII heavy chain (human, UniProt P00451 20-1667, limits assumed); test: ELISA: Factor VIII heavy chain (50 nM) coated on microtiter wells, biotinylated moAb216 added, detected with peroxidase-conjugated streptavidin, absorbance at 492 nm
T3 construct: only the heavy chain part stood in the assay; also called HCh
Method: as §3

Factor VIII A2 subunit [3] = biological target: T4, Factor VIII A2 subunit (human, UniProt P00451 392-759); test: SPR (BIAcore X), moAb216 coupled to CM5 chip, A2 in flow, 37 C; calculated as kdiss/kasso
T4 construct: only the A2 subunit stood in the assay; also called A2 domain
T4 sequence: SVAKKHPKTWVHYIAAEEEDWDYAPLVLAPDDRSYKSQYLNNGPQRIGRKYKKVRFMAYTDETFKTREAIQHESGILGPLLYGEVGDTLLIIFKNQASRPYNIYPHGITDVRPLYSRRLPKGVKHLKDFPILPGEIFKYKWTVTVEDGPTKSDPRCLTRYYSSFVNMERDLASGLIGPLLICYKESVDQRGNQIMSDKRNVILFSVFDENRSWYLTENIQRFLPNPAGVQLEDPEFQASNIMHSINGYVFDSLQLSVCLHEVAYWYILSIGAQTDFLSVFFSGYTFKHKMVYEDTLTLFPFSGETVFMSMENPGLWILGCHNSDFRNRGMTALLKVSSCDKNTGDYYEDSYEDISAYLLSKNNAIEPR
Method: as §1, §2

Factor VIII heavy chain [4] = biological target: T3, Factor VIII heavy chain; test: SPR (BIAcore X), moAb216 coupled to CM5 chip, heavy chain in flow, 37 C; calculated as kdiss/kasso
Method: as §1, §2

Factor VIII A2 subunit [5] = biological target: T4, Factor VIII A2 subunit; test: SPR (BIAcore X), moAb216 coupled to CM5 chip, A2 in flow, 37 C
Method: as §1, §2

Factor VIII A1 subunit = biological target: T5, Factor VIII A1 subunit (human, UniProt P00451 20-391); test: ELISA: Factor VIII A1 subunit (50 nM) coated on microtiter wells, biotinylated moAb216 added, detected with peroxidase-conjugated streptavidin, absorbance at 492 nm
T5 construct: only the A1 subunit stood in the assay; also called A1 domain
T5 sequence: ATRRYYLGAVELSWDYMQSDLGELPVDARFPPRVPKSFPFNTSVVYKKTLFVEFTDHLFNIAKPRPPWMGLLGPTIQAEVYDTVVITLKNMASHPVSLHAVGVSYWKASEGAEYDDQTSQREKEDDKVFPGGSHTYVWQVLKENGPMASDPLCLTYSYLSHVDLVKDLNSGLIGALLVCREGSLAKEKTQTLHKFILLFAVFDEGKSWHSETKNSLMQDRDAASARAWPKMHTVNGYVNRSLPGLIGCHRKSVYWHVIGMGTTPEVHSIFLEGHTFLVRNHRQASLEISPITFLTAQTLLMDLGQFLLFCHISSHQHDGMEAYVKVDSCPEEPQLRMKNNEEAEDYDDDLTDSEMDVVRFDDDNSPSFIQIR
Method: as §3

Factor VIII heavy chain [6] = biological target: T3, Factor VIII heavy chain; test: SPR (BIAcore X), moAb216 coupled to CM5 chip, heavy chain in flow, 37 C
Method: as §1, §2

[7] = biological target: T1, recombinant human blood coagulation …; test: ELISA: Factor VIII (50 nM) coated on microtiter wells, biotinylated moAb216 added, detected with peroxidase-conjugated streptavidin, absorbance at 492 nm
Method: as §3

[8] = biological target: T1, recombinant human blood coagulation …; test: SPR (BIAcore X), moAb216 coupled to CM5 chip, Factor VIII in flow, 37 C; calculated as kdiss/kasso
Method: as §1, §2

[9] = biological target: T1, recombinant human blood coagulation …; test: cell-based or functional assay

koff [1]: 0.001 s⁻¹
kon [1]: 930000 M⁻¹ s⁻¹
binding result (Factor VIII light chain): no binding (tested: 1.25 µg/ml)
EC50 (read off the curve) (Factor VIII heavy chain [2]): ~0.09 µg/mL
Kd (Factor VIII A2 subunit [3]): 0.8 nM
Kd (Factor VIII heavy chain [4]): 3 nM
koff (Factor VIII A2 subunit [5]): 0.0002 s⁻¹
kon (Factor VIII A2 subunit [5]): 238000 M⁻¹ s⁻¹
binding result (Factor VIII A1 subunit): no binding (tested: 1.25 µg/ml)
koff (Factor VIII heavy chain [6]): 0.0009 s⁻¹
kon (Factor VIII heavy chain [6]): 294000 M⁻¹ s⁻¹
EC50 (read off the curve) [7]: ~0.08 µg/mL
Kd [8]: 1.1 nM
percentage of Factor Xa cleavage at Arg372 (A2/A1-A2 ratio, densitometry) [9]: ≤ 2 times
rate of thrombin cleavage at Arg372 (A2 product/A1-A2 substrate ratio, densitometry of Western blot) [9]: ~2 times
B1: anti-Factor VIII monoclonal antibody moAb216 (antibody, V domains shown)
VH: EVRLVESGGGLVKPGGSLKLSCAASEFTFSSYSMSWVRQTPEKRLEWVASINSGGRTFYPDSVKGRFTISRDNARNILVLQMSSLRSEDTAMYYCARVIYYDYGAYALDYWGQGTSLTVSS
VL: EIVLTQSPALMAAYPGEKVTITCSVSSSISSSNLHWYQQKSETSPKLWIYGTSNLASGVPVRFSGSGSGTSYSLTISSMEAEDAATYYCQQWNIYPLTFGAGTKLELK
notes: It was biotinylated for the ELISAs and coupled covalently to a CM5 chip for SPR; also called moAb216 IgG; biotinylated moAb216
